# Values of other authors, collected in paper PMC9965408.
# Target: plasmin (Homo sapiens) (UniProt P00747)
# Chain of UniProt P00747 (P00747 581-810): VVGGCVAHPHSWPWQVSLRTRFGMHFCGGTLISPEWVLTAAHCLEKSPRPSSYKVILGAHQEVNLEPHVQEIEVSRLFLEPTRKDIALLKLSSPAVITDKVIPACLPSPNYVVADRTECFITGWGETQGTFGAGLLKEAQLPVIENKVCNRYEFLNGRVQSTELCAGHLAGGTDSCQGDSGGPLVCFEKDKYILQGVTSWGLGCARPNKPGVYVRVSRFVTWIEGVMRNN
substance,measurement,value
AaTI (from UniProt Q177W0),Ki,7 µM
